Data from patent US7524646B2 (priority 2001, dated 2009).
Entries after “also recorded” stand apart in the source; their conditions may differ.

Key:
[1] = tested on: strains bearing thyA:Val146 alleles; test: Cysteine suppression of thyA:Val146 alleles on gradient plates; format: cell-based, E. coli; conditions: gradient starting at 100 mM L-cysteine, no thymidine
Method: […] Ile-Val (0.3 mM) was added in one plate as a control. The dipeptide Ile-Val was purchased from Bachem A G (Bubendorf, Switzerland). Plates were incubated for 2 days at 30° C.
We took advantage of the thyA conditional selection screen in E. coli, based on the absolute requirement for an active thymidylate synthase when thymidine is not provided as a growth factor (13). This same screen was used previously to assess the potency of suppressor Cys-tRNAs in codon misreading (14) and to enforce phenotypic suppression by the non-canonical azaleucine (15). An entire set of plasmid-borne thyA alleles with all 64 different codons at position 146 was constructed for altering the catalytic site occupied by an essential Cys (16, 17). Each allele was tested for its ability to restore growth to an E. coli strain (lacking the chromosomal copy of thyA) on mineral glucose medium in the absence of thymidine (14, 15). Three of the 64 plasmid-borne thyA alleles restored growth. These had one of three codons-UGU, UGC, or UGA. The growth responses of the UGU and UGC alleles were expected, as these code for cysteine.
Shallow growth was reproducibly observed on L-cysteine gradient plates (18) for the missense alleles having any of the eight codons AUN and GUN alone. […]

[2] = tested on: five different valS strains (editing mutants); format: cell-based, E. coli; conditions: at 2 mM
Method: (§1) FIG. 1C: Photographs showing the results of growth of a strain carrying the valS:T222P allele in the presence of L-threonine or Abu. Minimal medium plates supplemented with thymidine (0.3 mM) were pretreated with amino acid solutions by streaking either with Thr (50 μl (0.2 M)) or Abu (50 μl (0.1 M)) vertically along the diameter of the plate to create an amino acid gradient. Mutant (β5456) and wild-type (β5419 (thyA::erm+ ΔnrdD::kan+ pTS13 (bla+ thyA: 146GUA)) strains were then streaked horizontally across the plates and incubated for 2 days at 37° C.
(§2) ValRS is known to misactivate Thr and generate Thr-tRNA^Val, which normally is hydrolyzed by the ValRS editing activity (9). If the ValRS mutants in Table 1 are impared for editing, then strains bearing each of these mutations should misincoporate Thr into protein, and L-threonine would then be toxic in these strains. The growth of the five different valS strains was therefore tested in the presence of L-threonine.

parent strain β5419 = test: Growth of parent strain in the presence of L-threonine; format: cell-based, E. coli; conditions: all concentrations
Method: as §1, §2

tRNA^Val [3] = test: Aminoacylation of tRNAVal with Val; format: biochemical, E. coli; conditions: pH 7.5, 37° C.
Method: (§3) FIG. 2B: A graph showing misaminoacylation of tRNA^Val with Thr by the T222P mutant enzyme at pH 7.5 and 37° C. The wild-type (WT) and mutant alleles were cloned under the control of a PBAD promoter (30). The enzymes were partially purified from a laboratory strain lacking the chromosomal copy of the valS gene (ΔvalS::kan+). The purification and aminoacylation procedures were adapted from Hendrickson et al. (31). (Main panel) Misaminoacylation of tRNA^Val with Thr by the two enzymes. (Inset) Aminoacylation of tRNA^Val with Val by the two enzymes.
(§4) Aminoaclyation Assay, Misacylation, and Deacylation: Aminoacylation assays were performed at 37 C. in a 100 uL volume containing buffer (20 mM HEPES, 0.1 mM EDTA disodium salt, 0.15M NH4Cl, 10 ug/mL BSA pH 7.5), […] MgCl2, 0.7 μM [^3H]Val, 20 μM cold Val, 2 μM tRNAval (Sigma) and 20 nM ValRS enzyme (adapted from Hendrickson et al. 2000). Aliquots (10 μL) of the reaction mixture were precipitated with tricholoracetic acid, and the level of aminoacylation of the tRNA was determined by scintillation counting.

tRNA^Val [4] = test: Misacylation of tRNAVal with Thr; format: biochemical, E. coli; conditions: pH 7.5, 37° C.
Method: as §3, §4
(§5) Misacylation of Thr onto tRNAval was performed in the same conditions except 5.86 μM [^3H]Thr was substituted forVal in the reaction. To test deacylation rates for these enzymes it was necessary to generate [^3H]Thr-tRNAval. […] Enzyme was incubated with 2.5 μM tRNAval and 45 uM [^3H]Thr, incubated at 37 C. for 45 minutes, extracted twice in phenol:chloroform, and ethanol precipitated. Pellet was dissolved in 100 μL sterile H2O and scintillation counting was used to determine the success of the reaction. Deacylation reactions, done in triplicate for each enzyme, were performed in 155 mM Tris-HCl (pH 7.5), 100 μg/ml BSA, 10 mM MgCl2. At room temperature 2 nM enzyme was combined with [^3H]Thr-tRNAval, at 3, 6, 9, 16, and 30 minutes aliquots (9 μL) of the reaction mixture were precipitated with tricholoracetic acid, and the amount of misaminoacylated [^3H]Thr-tRNAval remaining in the sample was determined by scintillation counting. A no enzyme control reaction was included to provide reference point.

tRNA^Val [5] = test: Misacylation of tRNAVal with cysteine; format: biochemical, E. coli
From the text: The T222P mutant enzyme was, therefore, expressed and partially purified so that it could be directly assayed for the ability to misacylate tRNA^Val.

[^3H]Thr-tRNAval = Deacylation of mischarged Thr-tRNAVal by ValRS enzymes; format: biochemical, E. coli; conditions: 2 nM enzyme, room temperature
Method: FIG. 5B: Histogram representation of the inhibition zone diameters of DvalS::kanR strains harboring each of the ValRS editing mutants on plasmid in response to exogenous Abu. Effects range from mild to severe. Histogram representation of the percentage of mischarged Thr-tRNAVal remaining after incubation with 2 nM enzyme for 15 minutes at room temperature. Both show a distinct range in the severity of editing defects caused by these point mutations. Taken together this illustrates a correlation between the ability of the mutant enzyme to deacylate mischarged amino acids from tRNAVal in vitro and the degree of in vivo toxicity.
as §5

N[C@@H](CS)C(=O)O [L-cysteine]
suppression of thyA:Val146 alleles [1]: weak

C[C@@H](O)[C@H](N)C(=O)O [L-threonine]
sensitivity of growth to exogenous L-threonine [2]: high sensitivity | sensitivity of growth to exogenous L-threonine (parent strain β5419): insensitive

B1: T222P (protein, UniProt P07118 1-951, looked up, variant T222P)
Valine--tRNA ligase: MEKTYNPQDIEQPLYEHWEKQGYFKPNGDESQESFCIMIPPPNVTGSLHMGHAFQQTIMDTMIRYQRMQGKNTLWQVGTDHAGIATQMVVERKIAAEEGKTRHDYGREAFIDKIWEWKAESGGTITRQMRRLGNSVDWERERFTMDEGLSNAVKEVFVRLYKEDLIYRGKRLVNWDPKLRTAISDLEVENRESKGSMWHIRYPLADGAKTADGKDYLVVATPRPETLLGDTGVAVNPEDPRYKDLIGKYVILPLVNRRIPIVGDEHADMEKGTGCVKITPAHDFNDYEVGKRHALPMINILTFDGDIRESAQVFDTKGNESDVYSSEIPAEFQKLERFAARKAVVAAVDALGLLEEIKPHDLTVPYGDRGGVVIEPMLTDQWYVRADVLAKPAVEAVENGDIQFVPKQYENMYFSWMRDIQDWCISRQLWWGHRIPAWYDEAGNVYVGRNEDEVRKENNLGADVVLRQDEDVLDTWFSSALWTFSTLGWPENTDALRQFHPTSVMVSGFDIIFFWIARMIMMTMHFIKDENGKPQVPFHTVYMTGLIRDDEGQKMSKSKGNVIDPLDMVDGISLPELLEKRTGNMMQPQLADKIRKRTEKQFPNGIEPHGTDALRFTLAALASTGRDINWDMKRLEGYRNFCNKLWNASRFVLMNTEGQDCGFNGGEMTLSLADRWILAEFNQTIKAYREALDSFRFDIAAGILYEFTWNQFCDWYLELTKPVMNGGTEAELRGTRHTLVTVLEGLLRLAHPIIPFITETIWQRVKVLCGITADTIMLQPFPQYDASQVDEAALADTEWLKQAIVAVRNIRAEMNIAPGKPLELLLRGCSADAERRVNENRGFLQTLARLESITVLPADDKGPVSVTKIIDGAELLIPMAGLINKEDELARLAKEVAKIEGEISRIENKLANEGFVARAPEAVIAKEREKLEGYAEAKAKLIEQQAVIAAL
activity for charging tRNA^Val with valine (tRNA^Val [3]): same activity as the wild-type enzyme | misacylation of tRNA^Val with Thr (tRNA^Val [4]): high levels of mischarged Thr-tRNA^Val; also recorded: misacylated tRNA^Val with Thr | misacylation of tRNA^Val with cysteine (tRNA^Val [5]): catalyzed only by the mutant enzyme | deacylation of Thr-tRNA^Val in vitro ([^3H]Thr-tRNAval): most severe defects
